Assay results as given in patent US20060141460A1, “Assays for fprl-1 ligands” (AstraZeneca A B, priority 2002, published 2006).
“And” between values parts separate entries of the source, which are not always exact repeats. Identical values can stand only once. Like-named read-outs stand apart in the source and are kept apart here. One block for each molecule: values may come before it. Where no end group is shown, it is not given here.

Experiments:
[1] = biological target: human formyl peptide receptor-like-1 (FPRL-1) receptor (human) (UniProt P25090); experiment: cell-based or functional assay
[2] = biological target: human formyl peptide receptor-like-1 (FPRL-1) receptor (human) (UniProt P25090); experiment: displacement of [125I]-WKYMVm from membranes of CHO cells stably expressing FPRL-1 (n = 3)
PMNs [3] = experiment: PMNs chemotaxis; format: cell-based, human
Experimental: The physiological relevance of CKβ8-1 (aa46-137) as a ligand for FPRL-1 was assessed by PMNs chemotaxis experiments.

FPRL-1 [4] = biological target: T1, FPRL-1 (Homo sapiens, UniProt P25090); format: cell-based
T1 sequence (P25090 1-351): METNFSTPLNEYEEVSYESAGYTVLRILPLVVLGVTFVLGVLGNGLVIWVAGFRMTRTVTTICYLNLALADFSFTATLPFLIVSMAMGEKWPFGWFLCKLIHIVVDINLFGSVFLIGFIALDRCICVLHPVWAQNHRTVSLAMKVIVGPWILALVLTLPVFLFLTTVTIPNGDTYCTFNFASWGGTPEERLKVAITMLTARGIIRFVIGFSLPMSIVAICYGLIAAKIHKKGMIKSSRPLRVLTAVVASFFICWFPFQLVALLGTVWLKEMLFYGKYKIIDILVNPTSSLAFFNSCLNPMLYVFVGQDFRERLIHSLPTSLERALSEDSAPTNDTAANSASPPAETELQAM

PMNs [5] = experiment: [Ca2+]i mobilization in PMNs (FLIPR); format: cell-based, human; details: n as in cell
Excerpt: Neutrophils play a pivotal role in the innate immune response to infection. Since these cells express FPRL-1, we evaluated the effect of CKβ8-1 (aa46-137) on PMNs calcium mobilization using the FLIPR system.

FPRL-1 [6] = biological target: T1, FPRL-1; experiment: Inhibition of forskolin-stimulated cAMP accumulation (adenylyl cyclase) in CHO cells expressing FPRL-1; format: cell-based; details: n as in cell
FPRL-1 [7] = biological target: T1, FPRL-1; format: cell-based; remark: listed apart in the source
Experimental: A stable receptor pool of FPRL-1 was developed by applying an antibiotic selection (G418, 1 mg/ml) and the cells were maintained in this selection medium.
A functional assay was performed with FLIPR (Fluorescent Imaging Plate Reader, Molecular Devices, Sunnyvale, Calif.) using the fluorescent calcium indicator Fluo-3 (Molecular Probes, Inc., Eugene, Oreg.) on a 96-well platform. […] On the day of the experiment, the FPRL-1-transfected cells were loaded with fluorescent solution (Dulbecco's modified medium containing 4 μM Fluo-3 and 20% pluronic acid). The cells were incubated at 37° C. for one hour in a humidified chamber. Following the incubation step, cells were washed five times in Hanks' with 20 mM Hepes and 0.1% BSA (pH 7.4). The cells were analyzed using the FLIPR system to measure the mobilization of intracellular calcium in response to different compounds.
Cell lines transiently expressing human FPRL-1 were stimulated with compounds, and calcium responses were compared to parental cells.

FPRL-1 [8] = biological target: T1, FPRL-1; experiment: [125I]-W-peptide (WKYMVm) displacement on membranes from CHO cells stably expressing FPRL-1; format: binding
[9] = biological target: human formyl peptide receptor-like-1 (FPRL-1) receptor (human) (UniProt P25090); experiment: cell-based or functional assay; remark: listed apart in the source
[10] = CHO cells co-expressing Gα16 and FPRL-1, mean±s.e. mean
[11] = calcium mobilization, cells co-expressing Gα16 and FPRL-1

- Adenylyl cylase pIC50 (inhibition of forskolin-stimulated cAMP accumulation), CHO cells (-log of the IC50) [1]: 9.02
- EC50, intracellular calcium mobilization (FLIPR), CHO cells transiently expressing hFPRL-1 in Gα16 background, n = 1 [1]: 0.69 nM
- EC50, intracellular calcium mobilization (FLIPR), CHO cells transiently expressing hFPRL-1 in Gα16 background, n = 2 [1]: 0.14 nM
- EC50, intracellular calcium mobilization (FLIPR), CHO cells transiently expressing hFPRL-1 in Gαqi5 background, n = 1 [1]: 2.9 nM
- EC50, intracellular calcium mobilization (FLIPR), CHO cells transiently expressing hFPRL-1 in Gαqi5 background, n = 2 [1]: 2.5 nM
- Emax, intracellular calcium mobilization (FLIPR), CHO cells transiently expressing hFPRL-1 in Gα16 background, n = 1 [1]: 4120 RFU
- Emax, intracellular calcium mobilization (FLIPR), CHO cells transiently expressing hFPRL-1 in Gα16 background, n = 2 [1]: 6330 RFU
- Emax, intracellular calcium mobilization (FLIPR), CHO cells transiently expressing hFPRL-1 in Gαqi5 background, n = 1 [1]: 4600 RFU
- Emax, intracellular calcium mobilization (FLIPR), CHO cells transiently expressing hFPRL-1 in Gαqi5 background, n = 2 [1]: 5950 RFU
- Intracellular Ca2+ mobilization pEC50 (n = 3), CHO cells (-log of the EC50) [1]: 9.13
- concentration giving the maximum percentage of cell migration, PMN chemotaxis [1]: 1 µM
- pEC50, [Ca2+]i mobilization in PMNs (-log of the EC50) [1]: 7.42
- pIC50 (-log of the IC50) [2]: 7.97
Molecule: recombinant human CKβ8-1 (aa46-137) (from UniProt P55773 46-137) (ligand)

Molecule: CSCC[C@H](NC(=O)[C@@H](NC(=O)[C@H](CCSC)NC(=O)[C@H](Cc1ccc(O)cc1)NC(=O)[C@H](CCCCN)NC(=O)[C@@H](N)Cc1c[nH]c2ccccc12)C(C)C)C(N)=O [W-peptide]
- concentration at which the maximum percentage of cell migration was reached (PMNs [3]): 100 nM
- calcium response (FPRL-1 [4]; CHO cells transiently expressing FPRL-1, absence of Gα16): consistent calcium response
- effect of pertussis toxin (PTX) pre-treatment on ligand-induced Ca2+ response (FPRL-1 [4]; CHO-K1 transiently expressing FPRL-1, PTX pre-treatment): completely abolished

- Intracellular Ca2+ mobilization pEC50 (n = 3), CHO cells (-log of the EC50) [1]: < 5
Molecule: CKβ8 (aa22-120) (from UniProt P55773 22-120) (ligand)

- pEC50 (PMNs [5]): inactive (n = 4)
Molecule: MIP-1α: ligand tested in PMNs

- pEC50 (PMNs [5]): 8.76 ± 0.24 (n = 3)
Molecule: IL-8: known to activate CXCR1 and CXCR2 receptors

Molecule: CCCCC[C@H](O)/C=C/C=C\C=C\C=C\[C@@H](O)[C@@H](O)CCCC(=O)O [Lipoxin A4 (LXA4), Lipoxin A4]
- Adenylyl cylase pIC50 (FPRL-1 [6]): <5.7 (n = 2)
- pEC50 (PMNs [5]): inactive (n = 4)
- Intracellular Ca2+ mobilization pEC50 (n = 3) (FPRL-1 [7]; [10]): <6.0
- [125I]-W-peptide (WKYMVm) Displacement pIC50 (n = 3) (FPRL-1 [8]): inactive

- EC50 (FPRL-1 [7]; Intracellular Ca2+ mobilization pEC50 (n = 3), CHO cells co-expressing Gα16 and FPRL-1, mean±s.e. mean): 182 nM
- times less potent at FPRL-1 as compared to CKβ8-1 (aa46-137) (FPRL-1 [7]; [11]): 60 to 200 times
- times more potent than the long form CKβ8-1(aa22-137) (FPRL-1 [7]; [11]): ~120 times
Molecule: LWRRKIGPQMTLSHAAG [SHAAG peptide]

Molecule: Human Prion protein (hPrP) (from UniProt P04156 106-126)
- Intracellular Ca2+ mobilization pEC50 (n = 3), CHO cells (-log of the EC50) [1]: < 6

- concentration giving the maximum percentage of cell migration, PMN chemotaxis [1]: 12 µM
- pEC50, [Ca2+]i mobilization in PMNs (-log of the EC50) [1]: 7.17
Molecule: MMK-1 (peptide)

- Intracellular Ca2+ mobilization pEC50 (n = 3), CHO cells (-log of the EC50) [1]: 6.74
- fold higher potency than CKβ8-1 (aa22-137), calcium mobilization [1]: 120 fold
- fold lower potency than CKβ8-1 (aa46-137), calcium mobilization [1]: 60 to 200 fold
Molecule: SHAAG peptide

- Intracellular Ca2+ mobilization pEC50 (n = 3), CHO cells (-log of the EC50) [1]: < 5
Molecule: CKβ8 (aa46-120) (from UniProt P55773 46-120) (ligand)

- Intracellular Ca2+ mobilization pEC50 (n = 3), CHO cells (-log of the EC50) [1]: < 5.7
- fold lower potency at FPRL-1 than at CCR1, calcium mobilization [1]: 200 to 300 fold
Molecule: CKβ8-1 (aa22-137) (from UniProt P55773 22-137) (ligand)

- Adenylyl cylase pIC50 (inhibition of forskolin-stimulated cAMP accumulation), CHO cells (-log of the IC50) [9]: 6.38 and 6.48
- Intracellular Ca2+ mobilization pEC50 (n = 3), CHO cells (-log of the EC50) [9]: 6.88
- pEC50, [Ca2+]i mobilization in PMNs (-log of the EC50) [9]: < 5.7
- Adenylyl cylase pIC50 (FPRL-1 [6]): 6.38 and 6.48
- pEC50 (PMNs [5]): <5.7 (n = 3)
- Intracellular Ca2+ mobilization pEC50 (n = 3) (FPRL-1 [7]; [10]): 6.88 ± 0.07
- [125I]-W-peptide (WKYMVm) Displacement pIC50 (n = 3) (FPRL-1 [8]): <5.52
- [125I]-W-peptide (WKYMVm) Displacement pIC50 (n = 3) (FPRL-1 [8]; listed as SAA): < 5.52
B1: Serum Amyloid A protein (SAA) (ligand, UniProt P0DJI8 19-122, looked up, species assumed)
Serum amyloid A-1 protein: RSFFSFLGEAFDGARDMWRAYSDMREANYIGSDKYFHARGNYDAAKRGPGGAWAAEVITDARENIQRFFGHGAEDSLADQAANEWGRSGKDPNHFRPAGLPEKY
